The target in test [1] is human CLDN6 (human) (UniProt P56747). Kind of test: FACS on HEK293T-CLDN6 cells.
Test [2] has as its target monkey CLDN6 (Cyno CLDN6) (monkey (Cyno)). The test is described as follows: FACS on CHO-K1-Cyno CLDN6 cells.
The target of test [3] is mouse CLDN6 (mouse) (UniProt Q9Z262). The test is described as follows: FACS on CHO-K1-Mouse CLDN6 cells.
The target of the next test is human CLDN3 (human) (UniProt O15551). The test is described as follows: FACS on 293T-CLDN3 cells, 10 µg/mL.
Sequence of human CLDN3 (human) (O15551 whole entry): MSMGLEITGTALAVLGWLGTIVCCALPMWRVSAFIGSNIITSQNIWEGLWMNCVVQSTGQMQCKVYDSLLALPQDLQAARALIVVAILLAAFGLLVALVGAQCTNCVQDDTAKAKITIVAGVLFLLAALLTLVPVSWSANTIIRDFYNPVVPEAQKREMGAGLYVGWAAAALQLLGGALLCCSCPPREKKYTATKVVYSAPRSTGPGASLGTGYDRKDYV
The target of the next test is human CLDN4 (human) (UniProt O14493). Kind of test: FACS on 293T-CLDN4 cells, 10 µg/mL.
Sequence of human CLDN4 (human) (O14493 whole entry): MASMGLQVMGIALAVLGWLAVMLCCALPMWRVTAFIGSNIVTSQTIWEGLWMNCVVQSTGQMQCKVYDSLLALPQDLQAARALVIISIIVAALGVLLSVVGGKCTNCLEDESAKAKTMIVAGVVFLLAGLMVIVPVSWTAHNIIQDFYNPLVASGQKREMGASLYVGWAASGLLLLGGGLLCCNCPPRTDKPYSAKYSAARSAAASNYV
Test [4] has as its target human CLDN6 (human) (UniProt P56747). The test is described as follows: FACS on 293T-CLDN6 cells, 10 µg/mL.
Test [5] deals with human CLDN9 (human) (UniProt O95484). Kind of test: FACS on 293T-CLDN9 cells, 10 µg/mL.
Sequence of human CLDN9 (human) (O95484 whole entry): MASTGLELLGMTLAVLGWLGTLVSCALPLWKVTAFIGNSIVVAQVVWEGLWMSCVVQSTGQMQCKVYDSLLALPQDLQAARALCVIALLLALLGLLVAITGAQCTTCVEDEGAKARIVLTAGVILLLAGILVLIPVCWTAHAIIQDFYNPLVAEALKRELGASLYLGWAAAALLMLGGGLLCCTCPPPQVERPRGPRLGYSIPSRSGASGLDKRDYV
The target of test [6] is human CLDN6 (human) (UniProt P56747). Kind of test: FACS on 293T-CLDN6 cells, 10 µg/mL. The source holds these as a separate data set.
Test [7] addresses human CLDN9 (human) (UniProt O95484). The test is described as follows: FACS on 293T-CLDN9 cells, 10 µg/mL. The source holds these as a separate data set.
The target of test [8] is human CLDN6 (human) (UniProt P56747). Kind of test: FACS on 293T-CLDN6 cells, 10 µg/mL. This is another data set of the same source.
Test [9] addresses human CLDN9 (human) (UniProt O95484). The test is described as follows: FACS on 293T-CLDN9 cells, 10 µg/mL. The source holds these as a separate data set.
Test [10] addresses human CLDN6 (human) (UniProt P56747). Kind of test: FACS on PA-1 tumour cells; target on the cells taken as CLDN6.
Test [11] shares this target. Described as above. This is another data set of the same source.
Test [12] has the same target. Kind of test: FACS on HepG2 tumour cells; target on the cells taken as CLDN6.
Test [13] has the same target. The test is described as above. The source holds these as a separate data set.
Test [14] shares this target. Kind of test: ratio of FACS Geom.Mean on 293T-CLDN6 over 293T-CLDN9, 10 µg/mL.
Test [15] shares this target. Kind of test: FACS on HepG2 tumour cells, 5 µg/mL; target on the cells taken as CLDN6.
The target of test [16] is mouse CLDN6 (mouse) (UniProt Q9Z262). Kind of test: FACS. (Flow cytometry measures light scatter and fluorescence of single cells or particles in a stream.)
The target is the same in test [17]. The test is described as follows: FACS; FIG. 20.

Where two headings read alike, the source gives them in different places.

Sequence of mouse CLDN6 (mouse) (Q9Z262 whole entry): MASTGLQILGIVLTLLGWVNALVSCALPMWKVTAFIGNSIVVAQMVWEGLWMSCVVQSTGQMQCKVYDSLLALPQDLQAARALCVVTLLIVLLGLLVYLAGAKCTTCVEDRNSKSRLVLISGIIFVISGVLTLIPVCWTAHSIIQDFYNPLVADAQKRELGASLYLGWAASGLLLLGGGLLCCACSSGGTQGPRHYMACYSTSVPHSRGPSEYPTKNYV
Sequence of human CLDN6 (human) (P56747 whole entry): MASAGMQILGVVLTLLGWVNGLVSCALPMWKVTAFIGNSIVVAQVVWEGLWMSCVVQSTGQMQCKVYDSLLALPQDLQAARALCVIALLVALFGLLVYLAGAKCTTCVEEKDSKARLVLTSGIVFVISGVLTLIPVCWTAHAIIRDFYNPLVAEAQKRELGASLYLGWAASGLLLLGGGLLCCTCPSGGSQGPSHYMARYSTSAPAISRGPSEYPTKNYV

The term EC50 denotes the concentration needed to bring the measured effect to its halfway point. With Human IgG (antibody), the EC50 was 323 mg/L with human CLDN6 (human) [1]; 132 mg/L in test [2]; 78.8 mg/L with mouse CLDN6 (mouse) [3]; 138000 mg/L with human CLDN6 (human) [10]; 194 mg/L with human CLDN6 (human) [11]; 63700 mg/L with human CLDN6 (human) [12]. Further, in the test with human CLDN6 (human) [13], the EC50 came to 77.5 mg/L. The substance also gave an FACS signal in the test with human CLDN6 (human) [1] of 136. Besides, the Geom.Mean with human CLDN3 (human) was 168; with human CLDN4 (human), 158; with human CLDN6 (human) [4], 196; in the test with human CLDN9 (human) [5] it was 119; in the test with human CLDN6 (human) [6], 163; with human CLDN9 (human) [7] it was 79.4. Also, the Geom.Mean with human CLDN6 (human) [8] worked out at 222; with human CLDN9 (human) [9], 295; with human CLDN6 (human) [15], 57.6. In addition, the CLDN6/CLDN9 ratio with human CLDN6 (human) [14] is 1.6.

For IMAB027, the EC50 with mouse CLDN6 (mouse) [16] and in the test with mouse CLDN6 (mouse) [17] was 0.332 mg/L in each case.

The record behind these values is patent publication US20260139049A1.
